A protein production outcome set (Wang et al. 2014)

Assay: label from the status in PepcDB records
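Also: failed if final PepcDB status was selected cloned or expressed and not failed if soluble or beyond.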

Row | Sequence | protein production
1 | MKIMGFYSQVILPRLLDWSLSDPTLATYRQELLTDVTGEVLEIGFGTGLNLAYYPSHIHKITTVDVNPGMNTIAQKRIDDSGIKVQQLLLSGENLPMADNTFDSVVSTWTLCSIANVEQALQEVYRVLKPGGKFFFLEHGLSNKPNVQVWQNRLTPIQKVLADGCHLNRNIQQLVEQSFDHVELKRFTPENFPDLMAHFYKGCATKKSILEHHHHHH | not failed
2 | MEPDMTQAFDDDTLRFYRGNATAYAERQPRSATLTKFLGELPAGAKILELGCGAGYQAEAMLAAGFDVDATDGSPELAAEASRRLGRPVRTMLFHQLDAIDAYDAVWAHACLLHVPRDELADVLKLIWRALKPGGLFYASYKSGEGEGRDKLARYYNYPSEEWLRARYAEAGTWASVAVESSEGKGFDQELAQFLHVSVRKPELEHHHHHH | not failed
3 | MLLLWLVVLVIGAAYLTHRRLAPLQILGIVAAYVLLMGIFSSAPGWLLALIWVVLALKIALVALPQWRRKLFTAPVFRWFQRTLPPMSQTEREAIDAGTVWWDGELFSGRPDWRTLLAYPAPKLTEEEQAFIDGPTEALCAMVSDWQIGQDLDLPPEAWAHIKQHGFFALIIPKEYGGKGFSAYAHSQVAMKLATRSGDLASTVMVPNSLGPAELLLHYGTDEQRNRYLPRLARGEEIPCFALTGPLAGSDAGAMPDTGIICKGQWQGEEVIGLRLNWEKRYITLGPVATLLGLAFKAYDPDHLLGEQEELGISLALIPTDTPGVEIGKRHLPLGAAFMNGPNSGKDVFVPLDFLIGGQAMLGKGWMMLMNCLSVGRSISLPAVGTGAAKYTSLVTGQYANIREQFNVPLAAFEGIQESLARIGGNAWLMDSARLLTAKAVDLGEKPSVLSAILKYHLTERGRECIQHAMDVHGGKGIIMGPNNYLGRNWQGAPIFITVEGANILSRNLMIFGQGAIRCHPFVLKEMALAGREDHDQALKEFDDLLMKHILFAAGNAASTLVYGLGLGRFERVPGDALSQGYFRALNRQAAAFAMMADLSMMLLGGALKRRERLSARLGDVLSYLYLASAALKRYHDQGSPEYLQPLLRWAMEESLGQTERALDRLLDNFPNRFVGCALRVLVFPFGRRHKGPGDELDAEVAELIGRRKGDPALEELLAGCYRPQAEHDPVADLQRASDLLEDTAQLSKALYQAVKEGKVQPAPGQSGIDAAVKAGVLQPDDGQRLHEAEQARRKVIDVDAFDKAQLLAVPGKVR | failed
4 | MDAMKYHDLRDFLTLLEQQGELKRITLPVDPHLEITEIADRTLRAGGPALLFENPKGYAMPVLCNLFGTPKRVAMGMGQDDVSALREVGKLLAFLKEPEPPKGFRDLFDKLPQFKQVLNMPTKRLRGAPCQQKIASGDDVDLTRLPVMTCWPDDAAPLITWGLTVTRGPHKERQNLGIYRQQLIGKNKLIMRWLSHRGGALDFQEWLAARPGERFPVSVALGADPATILGAVTPVPDTLSEYAFAGLLRGTKTEVVKCLSNDLEVPASAEIILEGYIEPGEMAPEGPYGDHTGYYNEVDSFPVFTVTHITQREDAIYHSTYTGRPPDEPAVLGVALNEVFVPILQKQFPEIVDFYLPPEGCSYRLAVVTMKKQYAGHAKRVMMGVWSFLRQFMYTKFVIVCDDDVNARDWNDVIWAITTRMDPARDTVLVENTPIDYLDFASPVSGLGSKMGLDATNKWPGETQREWGRPIVKDPEVTARIDAIWDELAIFKLEHHHHHH | not failed
5 | MVEVSQFKDAMAQLASAVHIVTTSGETGQHGFTASAVCSVTDSPPTLLVCINSNARAYEHFVKNRVLMVNTLTAEQSSLSNIFASPLSQEERFSNASWTTLTTGSPMLQDALINFDCEITEIKHVGTHDILICKIVDIHQSNAKNALVYRNRVYHSV | not failed
6 | KVKSGWLDKLSPQGKRMFQKRWVKFDGLSISYYNNEKEMYSKGIIPLSAISTVRVQGDNKFEVVTTQRTFVFRVEKEEERNDWISILLNALKSQSLTSQSQA | not failed
7 | SDPDADRIGVAVRNNEGRMVLINGNEICSLLIYYSIMRRKELGDLHPDDYIVKTIVTTELIRDIAKKEHVSMFDCYTGFKWIAAVIRENEGRRRYIGGGEESYGFLWEDFIRDKSSVSACALFCEMAAWALDRGMSVYRLIRSIYLEYGLYYE | failed
8 | MQRCLRIQVARRHKLRNGKILDLGQQPTAPLLSLYLSTAQSRVISNEEPASISWSCAEAGSALGLSSASGSAEEAEPWPGVRRGTEAGQYEFARAGEAAAAVRAAAAVAVARAGMRRYLRVVGLCLACGFCSLLYAFSQLAVSLEEGAAVGRRPQAAVASWLADGGRGTGRGAGSAGPGRTGRCKEVSLSYWNPYWMLPSDVCGVNCFWEAAFRYGLKTRPTEKMHLAVVACGDRLEETVTMLKSALIFSIKPLHVHIFAEDQLHDSFKDRLDSWSFLQRFNYSLYPITFPSDSAMEWKKLFKPCASQRLFLPLILKGVDSLLYVDTDVLFLRPVDDIWSLLERFNSTQIAAMAPEHEEPRVGWYNRFARHPYYGRTGVNSGVMLMNMTRMRRKYFKNDMTTARLQWGDILMPLLKKYKLNITWGDQDLLNIMFYHNPESLFVFPCQWNYRPDHCIYGSNCREAEEEGVFILHGNRGVYHDDKQPAFRAMYEALRNCSLEDDSVRSLLKPLELELQKTVHTYCGKTYKIFIKQLAKSIRNRYDTPPKER | failed
9 | MSRTTASTCMGERRQSSLKRLAIFRPVQRLPARELLPLDGDRWLVAAQRREPERGPNGLGNGQRRPVQFRREVPGEHDVCIHIHRAVGFEDVIHDEPHPVGGLPFDDIRCGHIYALLGQSIGYVRVVSDADLDDGIDRRQSVDKRAGGVGHVVQFMRCGRICVPMHVDIVPVGEVSAQVKREASDGLRSVYDCEVSMHEPQSIPAGAYDGDRDQYRAEEFIDLARRVGSGGKNIAITPKDLFYRRRNYVFGLAYLGGSGSVISTYRLQTSSDGGFSNRSAGEIFSQRVRKEVVHEVGHTLGLEHCDNKRCVMNFSPTVRQVDVKEVSLCGSCQRNVL | failed
10 | MARPRKPTNVLELTGAFKKDPQRRREDAEPVGELTAPPAHINGAVLHAWKEIAKYAPRDVLTNSDRLSLELAANLLAQFRNDPLDFPAAKLVRLEAMLGKFGMTPADRSKVGGGKKDAPKGNAFAEL | failed
11 | MTKVERLLINYKTLEEFKKFKEYGIQELSMLEELQDNIIENDSTSPFYGIYFGDKLVARMSLYQVNGKSNPYFDNRQDYLELWKLEVLPGYQNRGYGRALVEFAKSFKMPIRTNPRMKSAEFWNKMNFKTVKYDMARDKGEDPLIWHPDMDREMTPGESA | not failed
12 | MKRAVVVFSGGQDSTTCLIQALQDYDDVHCITFDYGQRHRAEIEVAQELSQKLGAAAHKVLDVGLLNELATSSLTRDSIPVPDYDANAQGIPNTFVPGRNILFLTLASIYAYQVGAEAVITGVCETDFSGYPDCRDEFVKALNQAIVLGIARDIRFETPLMWLNKAETWALADYYQQLDTVRYHTLTCYNGIKGDGCGQCAACHLRANGLAQYQKDAATVMASLKQKVGLR | not failed
13 | MAKPPTTIEVSPTITLPQQDPSLMGVTVSINGADQRTDQALAKVTRDNQIVTLTASRDLRFLLQEVLEKQMTARGYMVGPNGPVNLQIIVSQLYADVSQGNVRYNIATKADIAIIATAQNGNKMTKNYRASYNVEGAFQASNKNIADAVNSVLTDTIADMSQDTSIHEFIKQNARLEHHHHHH | not failed
14 | MSFSLWLLVLGCILLTLGLASAYLRLLPVSTSFIYLLFGLAIGPAGLHAWRSGLADISGWFEHLSEAALLISLFIGGLKLRLPLRSPAWTAAWLLAGPVLLGCILGLTLGAHFLFGLDWGLALLVAAILAPTDPVLASDIQVNHAGDDDRLRYAVSGEAGLNDGIAFPFVIAALLLIGQGGGLPGEFDRSGLDWLLRDVLWAIPLGLLVGYCLGHGLGRLAIHLRARHTDTSVSANDFLALALIALSYVGADALGGWGFLASFAAGIGLRHAEVATLGRASAPAEAQAAAADVREAGQASGAIEYGADRSEHPKVAAGAVMLDVLSFGNLLERSLEVLLVTLLGAMLYQHWDWRALPLALLLFCVCRPAMVWLLVGRRLMHPAQRRLLGWFGIRGIGSLYYLSYALNQGLPTALAHTASDLVLSLVALSICVHGLSIQPLLMRHARSVSRRDRE | failed
15 | MEGIVSIVFSTYNNREKALKCIESCLKQKYNKLFVIVADDGSNDGSQELFKKIQEKDSRFKFIPLVHKERGIARGKAISLAKKLESEYIYIIDSDMILEDNLIEKCMSFFNKNKNVGALIVPEYAFSEYENFYSKVKVFERNIINNSGEDMGKNSIEAARFWRMDAYDLSGGINPSQISFEETQPTIRYVEKGGVVKRAVFTKVYHDEKFVTLRNLLKKKMYYFSVMDKTIQSEEGGFIKTLKRWYFFRPVLYRGSNLKRYLRHPILTIGMINMYVILTLVGVSQILKRKK | failed
16 | MGHHHHHHSHMTDPSKLAVAVVCSSNMNRSMEAHNFLAKKGFNVRSYGTGERVKLPGMAFDKPNVYEFGTKYEDIYRDLESKDKEFYTQNGLLHMLDRNRRIKKCPERFQDTKEQFDIIVTVEERVYDLVVMHMESMESVDNRPVHVLNVDVVDNAEDALMGAFVITDMINMMAKSTDLDNDIDELIQEFEERRKRVILHSVLFY | not failed
17 | MHIPENLYVVGTMNIADRSLALVDLALRRRFAFVGLEPRLGQVWRDWVVKECAVDPGLVADIERRIAELNDQIAADARLGKQFRIGHSYVTPAHRLEAGDTKKWFLQVVETEIGPLLDEYWFDAPDEAQKAIARLTQGLEHHHHHH | failed
18 | AEIFTTLSCEPDIPNPPRIANRTKNSLTLQWKAPSDNGSKIQNFVLEWDEGKGNGEFCQCYMGSQKQFKITKLSPAMGCKFRLSARNDYGTSGFSEEVLYYTSGC | not failed
19 | MRRNRPGARHCPAFSGYPDPGFPRGSRRSGSSRRGKSRIMDWLKSLPGIGPLIARLMTTHAWRSYERLDRVKWTQLAAAMTFISFVALFPLLTVAAAIGAAALSEEQQKTLQDKLAEQVPGISDQLDIHALVQNAGTVGVIAGAVLLFTGIGWVGAMRDCLRAVWELDDDEENPFLRKLKDGGVLLGLGGAVLVTLATSTVASAMVGWTADRLGIERDGWGSVLLHITAFLVAVLADFLLLLYVLTLLPGVEPTRRRLVVAALIGAVGFELLKLLLSGYIQGVASKSMYGAFGVPVALLLWINFTSKLLLFCAAWTATPSDGPAEEEVSGASDDVPDRAAASGG | failed
20 | MMTLVILLLFLLFCVLVFWISITFSIKYVLIFTAFLFSGLLVYYSFLTIAGLIHRNSKRKDRTLEHYPSVDIFIPAHNEGVVIKDTLEAMAKIEYPGKLTIYLLNDNSQDETPEIGDDFDKAYAHIRHIRVPPGEPKGKSRVLNYGLSISDGEYFCVYDADNQPEPHALRMLVEHAETTEDAVGAVGHVRTVNEKRNWLTRMISLEFQIFQLLMQSGRWLLFQTGSLTGTNMLLRRSALEELGGYDPYAIAEDAELTLRITQKGYLLPIVPESVTWEQEPEHLKILIKQRTRWLQGNLYILEKMFSSLSFFKGKLLVHSLQQVLVYVVFWLFLIISNVWFVIGLLGIFQIQYSIPLLFMWYVAYITYVSQLFSAQSVERTFTPTNIFISVIMYFTYAQLFTYLFIRSLILYLRAKSKKQVIGWDKTVRFKKDK | failed
21 | MKKAKLIFKDNTPFSLDFDDFYFNFKDGLNESKFVYTHSFEWKNQENFIIAESGFGIGLNFFLTLKRFLETTPSKRPKKLFYISVEAFYIEKEQLREIYQKLEFYEEFKELLEQFLKFYPKAKEGIYRFYFEDCFLDLVFEDIAVLKELDFKADVWYLDGFSPNKNSQMFDENLIFEVARLSKKNTQICTFSSASFLQKNLKKYGFRVEKTKGFRKREMIKAYLENELEFKDKEAYFSRTFSSLKNKKVAIIGAGISSAVLAYELSLRGFEIDIFEKHLELGKGASGNESGILSSLILKPKVNLGEFSELSFIEASRFYRQILDLEFKGVVEFAHNDLMQERFDTQRENVLFKISKNQAFLEEGGVIFPKKLVKNLFEKSKACIYFNHEFQAYKFENGCFSLKFKNDVVKSDYAVLIYAMGADAKDFVFYDEMKLSKVRGQVTHLKPFLDTPFPLSSKAYICPVKDDLQVIGASYDRLNASLESKEEDDKQNIENIADFMDKNTKLEIIGSKVGFRSYSSDRFMIVGNAYDEAFYKEEYKALLWTKNKEQKPAKMSCNLYFNFAHGSRGFSTSVLAARYLCALINNEPLCLEKKYIHAIHPARFLIRKLKKGL | failed
